B1: library; numbered along this chain (parent)
chain: MATDAALRRLLRLHRTEIAVAVDSAFPLLHALADHDVVPEDKFQETLHLKEKEGCPQAFHALLSWLLTQDSTAILDFWRVLFKDYNLERYGRLQPILDSFPKDVDLSQPRKGRKPPAVPKALVPPPRLPTKRKASEEARAAAPAALTPRGTASPGSQLKAKPPKKPESSAEQQRLPLGNGIQTMSASVQRAVAMSSGDVPGARGAVEGILIQQVFESGGSKKCIQVGGEFYTPSKFEDSGSGKNKARSSSGPKPLVRAKGAQGAAPGGGEARLGQQGSVPAPLALPSDPQLHQKNEDECAVCRDGGELICCDGCPRAFHLACLSPPLREIPSGTWRCSSCLQATVQEVQPRAEEPRPQEPPVETPLPPGLRSAGEEVRGPPGEPLAGMDTTLVYKHLPAPPSAAPLPGLDSSALHPLLCVGPEGQQNLAPGARCGVCGDGTDVLRCTHCAAAFHWRCHFPAGTSRPGTGLRCRSCSGDVTPAPVEGVLAPSPARLAPGPAKDDTASHEPALHRDDLESLLSEHTFDGILQWAIQSMARPAAPFPS

Variants of: B1
Experiment: AIRE transcriptional activation functional score (insulin promoter-GFP; nonsense median 0, synonymous median 1) (normalised score); higher = higher AIRE activity (more reporter activation)
Settings: with insulin promoter-GFP reporter in HEK293
Description: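 Deep mutational scan of full-length human AIRE (codon-optimized cDNA, DT-POPCode NNN libraries over three regions) integrated at a Bxb1 landing pad in HEK293 cells carrying an insulin core promoter-GFP reporter at a Flp-In site. Cells were sorted for the top 10% GFP about 14 days after transfection. Variant frequency log-ratios (select vs non-select, TileSeq) were rescaled so that the nonsense median is 0 and the synonymous median is 1, then averaged over biological replicates.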

AIRE transcriptional activation functional score: each site, then its substitutions
A141: Y 1.66; V 1; S 1.01; T 0.967; W 1.18
L146: K 0.924; S 1.03; H 0.618; D 1.73; T 1.09; Q 1.05; I 0.888; A 0.454; N 0.353; M 0.496; R 0.262; F 0.9; E 0.882; W 1.42; C 0.639; Y 1.24; V 0.912; G 0.344; P 0.73
A145: V 0.722; Y 1.66; D 0.593; F 1.23; R 0.804; G 1.29; K 0.907; M 0.474; S 1.4; N 0.349; E 0.0573; H 1.37; P 0.887; I 0.806; T 1.21; L 1.19; C 1.07; W 2.05; Q 1.12
G150: K 1.53; E 0.763; D -0.34; I 1.08; H 1.19; L 1.3; C 1.38; F 1.34; A -0.308; M 0.246
A144: M 0.931; G 1.31; W 1.99; Q 0.126; F 1.26; N 0.39; R 0.836; H 0.0775; E 0.655; K 0.364; T 1.02; D 0.251; Y 1.48; I 0.989; V 1.1; L 1.17; C 1.04; P 1.65; S 0.773
R149: A 1.19; H 1.12; I 0.113; T 0.559; G 0.663; P 0.874; E 1.02; L 1.22; C 0.794; K 0.675; F 0.857; D 1.12; W 1.11; S 1.26; M 0.41; V 0.621; Y 0.303; Q 1.71; N 0.726
P148: D 0.772; R 0.931; Q 1.14; A 0.746; Y 1.97; I 1.49; S 1.19; N 0.598; F 1.53; L 1.45; V 1.45; H 0.972; C 1.31; T 1.29; K -0.163; E 1.67; G 0.361; M 0.633; W 0.0844
A142: V 1.27; I 0.926; C 1.03; W 1.28; Q -0.0872; E 1.17; M 0.975; P 0.882; G 1.29; Y 1.14; S 0.968; D 1.05; N 0.413; F 1.16; R 0.685; K 0.314; H 0.486; T 0.704; L 1.17
T147: C 0.358; Q 0.724; K 0.787; G 0.811; A 0.279; P 0.125; Y 0.76; L 1.05; W 1.75; M 1.19; E 1.45; D 0.817; N 1.26; F 1.49; I 1.16; V 0.966; H 1.22; S 0.771; R 1.03
P143: S 0.96; R 0.548; C 0.956; I 0.862; A 1.18; T 1.49; V 0.964; Q 1.33; L 1.11; K 0.307; G 0.958; D 1.01; Y 1.39; W 1.15; M 1.02; H 1.09; E 1.5; N 1.32; F 1.28

— the supplement of paper PMC12667976
